According to paper PMC8972799:

Biological target: T1, D-alanyl carrier protein ligase DltA from Staphylococcus aureus Mu50 (S. aureus) (UniProt P68876)
T1 sequence: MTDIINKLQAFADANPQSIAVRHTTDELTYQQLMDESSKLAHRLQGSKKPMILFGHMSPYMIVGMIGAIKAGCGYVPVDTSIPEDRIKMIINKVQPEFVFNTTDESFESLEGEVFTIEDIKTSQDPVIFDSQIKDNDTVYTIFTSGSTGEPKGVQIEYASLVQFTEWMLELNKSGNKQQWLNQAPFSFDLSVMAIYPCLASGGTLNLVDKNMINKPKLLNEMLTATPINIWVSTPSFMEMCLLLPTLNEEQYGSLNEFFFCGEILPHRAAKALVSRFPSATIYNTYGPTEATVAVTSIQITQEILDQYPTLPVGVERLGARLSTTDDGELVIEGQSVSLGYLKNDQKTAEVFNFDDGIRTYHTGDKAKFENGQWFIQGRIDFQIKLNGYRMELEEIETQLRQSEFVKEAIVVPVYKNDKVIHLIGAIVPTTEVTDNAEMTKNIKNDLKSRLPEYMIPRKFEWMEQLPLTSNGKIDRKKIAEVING

B1: wild-type S. aureus DltC, Ppant-modified (natural protein)
chain: MEFREQVLNLLAEVAENDIVKENPDVEIFEEGIIDSFQTVGLLLEIQNKLDIEVSIMDFDRDEWATPNKIVEALEELR
modifications: 4'-phosphopantetheinyl (Ppant) group at Ser36
adenylation activity of SaDltA (5 µM; initial rate, pyrophosphate-detection assay, 5 mM D-alanine) in the presence of 300 µM wild-type SaDltC, against SaDltA alone: 7.2 fold
